Reference: patent US20100196266A1 (published 2010)
One block for each binder: values may come before it.

Legend:
[1] = target: T1, human CD22 on cells (human, UniProt P20273 20-847); test: indirect FACS, FITC-GAH Fc, WSU-FSCCL cells; none 2.6
T1 construct: whole, on cells

[2] = target: T1, human CD22 on cells; test: indirect FACS, FITC-GAH Fc, SU-DHL-6 cells; none 4.6
[3] = target: T1, human CD22 on cells; test: indirect flow cytometry, Namalwa cells, FITC-GAH; none 2.52
[4] = target: T1, human CD22 on cells; test: indirect FACS, FITC-GAH Fc, Namalwa cells; none 2.5
[5] = target: T1, human CD22 on cells; test: indirect flow cytometry, FITC-GAH Fc, SU-DHL-6 cells; none 4.6
[6] = target: T2, human CD74 on cells (human, UniProt P04233 1-296); test: indirect flow cytometry, FITC-GAH Fc, Daudi cells; none 3.2
T2 construct: whole, on cells
T2 sequence (looked up): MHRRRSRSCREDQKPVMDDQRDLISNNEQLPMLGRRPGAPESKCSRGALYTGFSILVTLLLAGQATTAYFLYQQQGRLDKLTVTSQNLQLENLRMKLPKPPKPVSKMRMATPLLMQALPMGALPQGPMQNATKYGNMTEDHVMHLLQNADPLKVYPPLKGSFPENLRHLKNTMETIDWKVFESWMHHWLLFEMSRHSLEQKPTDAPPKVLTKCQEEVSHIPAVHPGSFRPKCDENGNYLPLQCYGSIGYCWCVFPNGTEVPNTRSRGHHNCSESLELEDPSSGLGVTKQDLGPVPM

[7] = target: T2, human CD74 on cells; test: indirect FACS, FITC-GAH Fc, WSU-FSCCL cells; none 2.6
[8] = target: T2, human CD74 on cells; test: indirect FACS, FITC-GAH Fc, Raji cells; none 6.8
[9] = target: T2, human CD74 on cells; test: indirect FACS, FITC-GAH Fc, SU-DHL-6 cells; none 4.6
[10] = target: T2, human CD74 on cells; test: indirect FACS, FITC-GAH Fc, Daudi cells; none 3.1
[11] = target: T2, human CD74 on cells; test: indirect flow cytometry, Namalwa cells, FITC-GAH; none 2.52
[12] = target: T2, human CD74 on cells; test: indirect flow cytometry, FITC-GAH Fc, WSU-FSCCL cells; none 2.7
[13] = target: T2, human CD74 on cells; test: indirect FACS, FITC-GAH Fc, Ramos cells; none 3.1
[14] = target: T2, human CD74 on cells; test: indirect flow cytometry, FITC-GAH Fc, RL cells; none 2.4
[15] = target: T2, human CD74 on cells; test: indirect FACS, FITC-GAH Fc, Namalwa cells; none 2.5
[16] = target: T2, human CD74 on cells; test: indirect flow cytometry, FITC-GAH Fc, Raji cells; none 6.9
[17] = target: T2, human CD74 on cells; test: indirect flow cytometry, FITC-GAH Fc, Namalwa cells; none 2.6
[18] = target: T2, human CD74 on cells; test: indirect flow cytometry, FITC-GAH Fc, Ramos cells; none 3.1
[19] = target: T2, human CD74 on cells; test: indirect flow cytometry, FITC-GAH Fc, SU-DHL-6 cells; none 4.6
[20] = target: T3, human CD20 on cells (human, UniProt P11836 1-297); test: indirect flow cytometry, FITC-GAH Fc, Daudi cells; none 3.2
T3 construct: whole, on cells
T3 sequence (looked up): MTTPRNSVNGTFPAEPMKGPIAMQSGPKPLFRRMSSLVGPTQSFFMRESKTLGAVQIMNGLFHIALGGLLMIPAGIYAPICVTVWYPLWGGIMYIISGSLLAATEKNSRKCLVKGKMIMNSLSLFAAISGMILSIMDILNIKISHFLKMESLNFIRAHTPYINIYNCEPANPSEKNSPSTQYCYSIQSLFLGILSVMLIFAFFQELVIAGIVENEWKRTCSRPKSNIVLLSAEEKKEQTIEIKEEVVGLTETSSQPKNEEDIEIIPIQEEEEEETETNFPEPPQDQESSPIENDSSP

[21] = target: T3, human CD20 on cells; test: indirect FACS, FITC-GAH Fc, WSU-FSCCL cells; none 2.6
[22] = target: T3, human CD20 on cells; test: indirect FACS, FITC-GAH Fc, Raji cells; none 6.8
[23] = target: T3, human CD20 on cells; test: indirect FACS, FITC-GAH Fc, SU-DHL-6 cells; none 4.6
[24] = target: T3, human CD20 on cells; test: indirect FACS, FITC-GAH Fc, Daudi cells; none 3.1
[25] = target: T3, human CD20 on cells; test: indirect flow cytometry, Namalwa cells, FITC-GAH; none 2.52
[26] = target: T3, human CD20 on cells; test: indirect flow cytometry, FITC-GAH Fc, WSU-FSCCL cells; none 2.7
[27] = target: T3, human CD20 on cells; test: indirect FACS, FITC-GAH Fc, Ramos cells; none 3.1
[28] = target: T3, human CD20 on cells; test: indirect flow cytometry, FITC-GAH Fc, RL cells; none 2.4
[29] = target: T3, human CD20 on cells; test: indirect FACS, FITC-GAH Fc, Namalwa cells; none 2.5
[30] = target: T3, human CD20 on cells; test: indirect flow cytometry, FITC-GAH Fc, Raji cells; none 6.9
[31] = target: T3, human CD20 on cells; test: indirect flow cytometry, FITC-GAH Fc, Namalwa cells; none 2.6
[32] = target: T3, human CD20 on cells; test: indirect flow cytometry, FITC-GAH Fc, Ramos cells; none 3.1
[33] = target: T3, human CD20 on cells; test: indirect flow cytometry, FITC-GAH Fc, SU-DHL-6 cells; none 4.6

Geometric Mean Fluorescence [1]: 4.1
Geometric Mean Fluorescence [2]: 11
GEO MEAN Fluorescence [3]: 6.76
Geometric Mean Fluorescence [4]: 6.4
Geometric Mean Fluorescence [5]: 11
B1: epratuzumab (hLL2, humanized anti-CD22 mAb) (antibody, V domains shown)
VH: QVQLVQSGAEVKKPGSSVKVSCKASGYTFTSYWLHWVRQAPGQGLEWIGYINPRNDYTEYNQNFKDKATITADESTNTAYMELSSLRSEDTAFYFCARRDITTFYWGQGTTVTVSS
VL: DIQLTQSPSSLSASVGDRVTMSCKSSQSVLYSANHKNYLAWYQQKPGKAPKLLIYWASTRESGVPSRFSGSGSGTDFTFTISSLQPEDIATYYCHQYLSSWTFGGGTKLEIK

Geometric Mean Fluorescence [6]: 48.8
Geometric Mean Fluorescence [7]: 8.66
Geometric Mean Fluorescence [8]: 95.1
Geometric Mean Fluorescence [9]: 17.3
Geometric Mean Fluorescence [10]: 48.8
GEO MEAN Fluorescence [11]: 10.1
Geometric Mean Fluorescence [12]: 8.7
Geometric Mean Fluorescence [13]: 23.2
Geometric Mean Fluorescence [14]: 7.9
Geometric Mean Fluorescence [15]: 7.81
Geometric Mean Fluorescence [16]: 95.1
Geometric Mean Fluorescence [17]: 7.8
Geometric Mean Fluorescence [18]: 23.3
Geometric Mean Fluorescence [19]: 17.3
B2: milatuzumab (hLL1, humanized anti-CD74 mAb) (antibody, V domains shown)
VH: QVQLQQSGSELKKPGASVKVSCKASGYTFTNYGVNWIKQAPGQGLQWMGWINPNTGEPTFDDDFKGRFAFSLDTSVSTAYLQISSLKADDTAVYFCSRSRGKNEAWFAYWGQGTLVTVSS
VL: DIQLTQSPLSLPVTLGQPASISCRSSQSLVHRNGNTYLHWFQQRPGQSPRLLIYTVSNRFSGVPDRFSGSGSGTDFTLKISRVEAEDVGVYFCSQSSHVPPTFGAGTRLEIK

Geometric Mean Fluorescence [20]: 241
Geometric Mean Fluorescence [21]: 8.91
Geometric Mean Fluorescence [22]: 267
Geometric Mean Fluorescence [23]: 1200
Geometric Mean Fluorescence [24]: 241
GEO MEAN Fluorescence [25]: 6.28
Geometric Mean Fluorescence [26]: 8.9
Geometric Mean Fluorescence [27]: 204
Geometric Mean Fluorescence [28]: 128
Geometric Mean Fluorescence [29]: 10.1
Geometric Mean Fluorescence [30]: 267
Geometric Mean Fluorescence [31]: 10.1
Geometric Mean Fluorescence [32]: 204
Geometric Mean Fluorescence [33]: 1200
B3: veltuzumab (hA20, humanized anti-CD20 mAb) (antibody, V domains shown)
VH: QVQLQQSGAEVKKPGSSVKVSCKASGYTFTSYNMHWVKQAPGQGLEWIGAIYPGMGDTSYNQKFKGKATLTADESTNTAYMELSSLRSEDTAFYYCARSTYYGGDWYFDVWGQGTTVTVSS
VL: DIQLTQSPSSLSASVGDRVTMTCRASSSVSYIHWFQQKPGKAPKPWIYATSNLASGVPVRFSGSGSGTDYTFTISSLQPEDIATYYCQQWTSNPPTFGGGTKLEIK
